Laboratory results reported in article PMC7246762, “Peptide Interference with APP and Tau Association: Relevance to Alzheimer’s Disease Amelioration” (International Journal of Molecular Sciences, 2020).
No end group written: not given here.

Biological target: T1, Tau1 (19-34) peptide labelled with rhodamine (human, also: labelled with rhodamine isothiocyanate, site not given here)
T1 construct: microtubule-associated protein Tau, human, residues 19-34; also called Tau1R; source: synthetic peptide (GL Biochem Ltd.), labelled with rhodamine isothiocyanate
T1 peptide: GLGDRKDQGGYTMHQD
Assay: far-Western, overlay or dot blot; mixtures of a fluorescein-labelled (green) and a rhodamine-labelled (red) peptide spotted on a nitrocellulose membrane; yellow colour read as binding
Details: both partners purified

binding result: binds
B1: APP1 (390-412) peptide labelled with fluorescein (peptide)
peptide: HFQKAKERLEAKHRERMSQVMRE
modifications: also: labelled with fluorescein isothiocyanate, site not given here
notes: amyloid precursor protein, human, residues 390-412; The discussion names the region as 389-411; also called APP1F; App1F; source: synthetic peptide (GL Biochem Ltd.), labelled with fluorescein isothiocyanate
